Results reported in PMC4378939.

Key:
[1] = molecular target: single domain antibody against GFP with a six histidine-tag at the C-terminal (GFP-Nb) (llama); assay: SPR; GFP-Nb diluted in NTA running buffer of pH 4.0-10.5, then captured on Ni:NTA chip; 30 nM GFP as analyte; constants given for the whole pH range
[2] = molecular target: single domain antibody against GFP with a six histidine-tag at the C-terminal (GFP-Nb) (llama); assay: SPR; GFP-Nb captured on Ni:NTA chip; 30 nM GFP diluted in NTA running buffer with different NaCl concentrations (up to 1 M) as analyte; constants given for all NaCl concentrations
[3] = molecular target: single domain antibody against GFP with a six histidine-tag at the C-terminal (GFP-Nb) (llama); assay: SPR; GFP-Nb heated for 30 min at 25-100°C and cooled 30 min at room temperature, then captured on Ni:NTA chip; 30 nM GFP as analyte; NTA running buffer, 25°C; constants given for the whole temperature range
[4] = molecular target: single domain antibody against GFP with a six histidine-tag at the C-terminal (GFP-Nb) (llama); assay: SPR; BIAcore X100, 25°C; GFP-Nb amine-coupled to a CM5 chip (~2500 R.U.), GFP as analyte (0.2-1000 nM; 10 nM with dissociation followed for 36000 s for koff); 10 mM HEPES pH 7.4, 0.15 M NaCl, 0.05% tween 20; KD from end-point response (Hill coefficient 1)
[5] = molecular target: single domain antibody against GFP with a six histidine-tag at the C-terminal (GFP-Nb) (llama); assay: SPR; BIAcore X100, 25°C; GFP-Nb (~3 nM, ~50 R.U.) captured by its His tag on Ni:NTA chip, GFP as analyte (0.1-1000 nM), 30 μl/min; 10 mM HEPES pH 7.4, 0.15 M NaCl, 50 μM EDTA, 0.05% tween 20; kon and koff from 1:1 fit, KD from end-point response (Hill equation)
[6] = molecular target: single domain antibody against GFP with a six histidine-tag at the C-terminal (GFP-Nb) (llama); assay: SPR; BIAcore X100, 25°C; GFP-Nb captured by its His tag on anti-polyhistidine antibody amine-coupled to a CM5 chip, GFP as analyte, 30 μl/min; 10 mM HEPES pH 7.4, 0.15 M NaCl, 0.05% tween 20; kon and koff from 1:1 fit, KD from end-point response (Hill equation)

single domain antibody against GFP with a six histidine-tag at the C-terminal (GFP-Nb) (llama), sequence (heavy, as listed by the source): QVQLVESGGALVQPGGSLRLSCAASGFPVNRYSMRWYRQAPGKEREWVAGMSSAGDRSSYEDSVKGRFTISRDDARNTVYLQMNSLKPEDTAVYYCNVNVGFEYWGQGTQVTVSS

Green Fluorescent Protein (GFP) (from UniProt P42212 1-238) (natural protein)
koff [1]: 0.00064 s⁻¹
kon [1]: 1.4e+06 M⁻¹ s⁻¹
koff [2]: 0.00063 s⁻¹
kon [2]: 1.5e+06 M⁻¹ s⁻¹
koff [3]: 0.00063 s⁻¹
kon [3]: 1.5e+06 M⁻¹ s⁻¹
Kd [4]: 9.6 nM
koff [4]: 1.4e-05 s⁻¹
Kd [5]: 6.1 nM
koff [5]: 0.00071 s⁻¹
kon [5]: 1.1e+06 M⁻¹ s⁻¹
Kd [6]: 5.5 nM
koff [6]: 0.00029 s⁻¹
kon [6]: 1e+06 M⁻¹ s⁻¹
